Data set [1] deals with OVCAR3 ovarian cancer model. Description: M825 and M825-MMAE in OVCAR3 ovarian cancer model. The data set is classed as in vivo, mice. Conditions: free MMAE at 0.2 mg/kg, equivalent to maximum MMAE in the 10 mg/kg ADC group. The method, then: Treatment initiated when tumor volume reached approximately 120 mm^3. M825 was given i.v. at 10 mg/kg and M825-MMAE was given i.v. at 1, 3, or 10 mg/kg, 2 times per week for 3.5 weeks. […] The 10 mg/kg ADC group was redosed on Day 56, 2 times per week.

For data set [2], the system named is H460 human non-small cell lung carcinoma xenograft. Briefly: M830 alone and with gemcitabine, cisplatin or radiation in H460 human non-small cell lung carcinoma xenograft model. The settings on record: 58-day study, survival (TTE), logrank. In kind it is in vivo, nude mice. An excerpt:
(§1) The statistical tests were not adjusted for multiple comparisons.
Treatment began on Day 1 in eight groups of nude mice (n=10) with established subcutaneous H460 tumors of 75-126 mm^3. […] The study endpoint was a tumor volume of 2000 mm^3 or the final day, Day 58, whichever came first. […] The median TTE for controls was 15.6 days, establishing a maximum possible TGD of 42.4 days (272%) for the 58-day study.
In general terms: In xenograft studies the graft and the host belong to different species.

Data set [3] is described as follows: Pharmacokinetics of TEM8 antibodies in mouse, multiple dose. In kind it is in vivo. An excerpt:
(§2) Tables 8 and 9 show pharmacokinetic properties of TEM8 antibodies according to the present invention in mouse for single dose (Table 8) and multiple dose (Table 9) treatments.

In a further data set the test system is 3T3 fibroblasts. Description: Contractility of 3T3 fibroblasts in the presence of TGFb-1. In kind it is cell-based. The method, then: 3T3 cells were cultured and contractility in the presence of TGFb-1 was measured in control or M825 exposed cells. […] Contractile forces are thought to contribute to increased cancer cell invasion.
The next data set deals with hTEM8-AP. Description: Biocore affinity measurements of anti-TEM8 Fabs, hTEM8-AP. Conditions: Fab. The data set is classed as binding, human.
Chain of hTEM8-AP (Q9H6X2 33-321): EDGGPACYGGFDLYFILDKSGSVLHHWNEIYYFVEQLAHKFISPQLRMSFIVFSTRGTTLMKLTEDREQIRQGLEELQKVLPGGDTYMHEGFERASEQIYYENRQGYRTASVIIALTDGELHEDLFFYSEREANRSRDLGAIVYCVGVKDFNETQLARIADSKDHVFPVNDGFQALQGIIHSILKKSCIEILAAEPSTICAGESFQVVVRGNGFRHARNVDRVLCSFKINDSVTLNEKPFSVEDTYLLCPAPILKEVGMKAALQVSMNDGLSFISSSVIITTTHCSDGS
Data set [4] can be described thus: Pharmacokinetics of TEM8 antibodies in mouse, single dose. In kind it is in vivo.
From the text: as §2

In a further data set the test system is UACC melanoma cells. Briefly: TEM8 antibody efficacy in UACC melanoma model. The settings on record: 15 mg/kg, 3 times per week for 3-4 weeks; treatment initiated at 50 mm^3. The data set is classed as in vivo, mice. As for the experimental part: UACC melanoma cells were cultured and injected subcutaneously into mice. Treatment was initiated with a tumor volume of 50 mm^3, and treatment groups consisted of one of four TEM8 antibodies (M825, M830, M863, and M822), each dosed at 15 mg/kg, 3 times per week for 3-4 weeks.

Data set [5] concerns H460 non-small cell lung carcinoma xenograft. Description: M830 alone and with bevacizumab or paclitaxel in the H460 non-small cell lung carcinoma xenograft model. In kind it is in vivo, athymic nude mice. The settings on record: combination partner Paclitaxel. The method, then:
Animals were monitored for regression responses.
as §1
Cultured H460 cells were harvested during exponential growth and resuspended in phosphate buffered saline at a concentration of 1×10^8 cells/mL. 1.0×10^7 tumor cells were injected subcutaneously into the flank of athymic nude mice. Animals were euthanized when tumors reached the pre-determined volume endpoint of 2000 mm^3 or on the final day (Day 88), whichever came first. […] Each treatment produced a significant survival difference versus controls (P<0.01). The median TTE for controls was 22.8 days, establishing a maximum possible TGD of 65.2 days (286%) for the 88-day study.

The target in a further data set is FcγRIIIa (CD16a) (Homo sapiens, UniProt P08637). Briefly: Binding of M830 Fc mutant to FcγRIIIa (ADCC). Conditions: Fc mutant form compared with M830. An excerpt: Fc mutations which increase ADCC are known in the art. For example, substitutions in the IgG constant region such as S239D, A330L, and I332E are known to increase binding to the FCy receptor. (see, e.g., Lazar et al., Proc. Natl., Acad. Sci. U.S.A., 103:4005-4010, 2006). In the present example, the M830 Fc S239D:I332E double mutant was generated and confirmed by standard molecular biology techniques (830M: S239D/I332E).
Chain of FcγRIIIa (CD16a) (P08637 17-254): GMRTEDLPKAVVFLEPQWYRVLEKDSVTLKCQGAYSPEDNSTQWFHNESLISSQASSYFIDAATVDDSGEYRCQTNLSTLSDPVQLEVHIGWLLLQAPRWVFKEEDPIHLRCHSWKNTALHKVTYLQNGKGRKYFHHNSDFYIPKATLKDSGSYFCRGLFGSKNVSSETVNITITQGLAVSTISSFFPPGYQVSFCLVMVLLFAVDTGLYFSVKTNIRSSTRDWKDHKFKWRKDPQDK

Changes are numbered by the printed parent chain. Numbers in names are those of the source. Where a SMILES comes first, the peptide text is derived from it. [ ]: non-standard residue; d: D form. The star is where a group is joined. Dolaproine = CO[C@@H]([C@@H]1CCCN1)[C@@H](C)C(=O)O; Dil = CC[C@H](C)[C@H](NC)[C@@H](CC(=O)O)OC; X1 = C[C@@H](N*)[C@@H](O)c1ccccc1; NMeV = CN[C@H](C(=O)O)C(C)C

As usually defined, the Kd is the constant that tells how readily two partners part at equilibrium. A higher Kd goes with lower affinity.

Consider `CC[C@H](C)[C@@H]([C@@H](CC(=O)N1CCC[C@H]1[C@H](OC)[C@@H](C)C(=O)N[C@H](C)[C@@H](O)c1ccccc1)OC)N(C)C(=O)[C@@H](NC(=O)[C@@H](NC)C(C)C)C(C)C` [MMAE, reference compound] (H-[NMeV]V[Dil][Dolaproine]-X1), for which the “effect in OVCAR3 model” value in data set [1] is reported as “No effect”.
Turning to `Nc1ccn([C@@H]2O[C@H](CO)[C@@H](O)C2(F)F)c(=O)n1` [gemcitabine], in data set [2], the “outcome compared to vehicle-treated controls” value is listed as “not statistically different from vehicle-treated controls”.
“M825: TEM8 monoclonal antibody (hIgG1); VH SEQ ID NO:1, VL SEQ ID NO:2 [Antibody M825]”: the AUCI worked out at 1408.345 µg·h/mL in [3] (5 mg/kg), 21649.446 µg·h/mL in data set [3] (15 mg/kg), 1310.519 µg·h/mL in data set [4] (5 mg/kg) and 9239.202 µg·h/mL in data set [4] (15 mg/kg). In addition, the AUCT came out at 1408.201 µg·h/mL in data set [3] (5 mg/kg), 21648.879 µg·h/mL in data set [3] (15 mg/kg), 1310.222 µg·h/mL in data set [4] (5 mg/kg) and 8991.767 µg·h/mL in data set [4] (15 mg/kg). Also, the “contractility of activated 3T3 fibroblasts in vitro” value with 3T3 fibroblasts was “block the contractility”. The Kd at hTEM8-AP worked out at 0.0591 nM.
On to `N.N.[Cl][Pt][Cl]` [Cisplatin, cisplatin], for which, in data set [2], the “outcome compared to vehicle-treated controls” value is on record as “statistically significant survival benefit”.

B1: M830: TEM8 monoclonal antibody (hIgG1); VH SEQ ID NO:5, VL SEQ ID NO:6 (antibody, V domains shown)
VH: EVQLVESGGGVVQPGRSVRLSCAASGFTFSTYTMHWVRQAPGKGLEWVAIISNDGSNKYYADPVRGRFTISRDNSKNTLYLQMNSLRAEDTAVYYCVRGSSWYRGNWFDPWGQGTLVTVSS
VL: DIQMTQSPSSLSASVGDRVTIACRASQTISRYLNWYQQKPGKAPKLLIYAASSLQSGVSSRFSGSGSGTEFTLTISSLQPEDFATYFCQQTYSPPITFGQGTRLEIKR
modifications: TEM830 mAb VH; TEM830 mAb VL
B1: the “tumor growth in the UACC melanoma model” value in the data set on UACC melanoma cells is recorded as “effective at slowing tumor growth”. Moreover, the AUCI worked out at 4316.79 µg·h/mL in data set [3] (5 mg/kg), 23053.875 µg·h/mL in data set [3] (15 mg/kg), 2242.485 µg·h/mL in [4] (5 mg/kg) and 10692.742 µg·h/mL in [4] (15 mg/kg). Further, the AUCT in data set [3] (5 mg/kg) was determined as 4315.918 µg·h/mL; in data set [3] (15 mg/kg), 23052.853 µg·h/mL; in data set [4] (5 mg/kg), 2242.286 µg·h/mL; in data set [4] (15 mg/kg), 10692.598 µg·h/mL. Also, at hTEM8-AP, the Kd came out at 1.57 nM. In data set [2], the “outcome compared to vehicle-treated controls” value is listed as “not statistically different from vehicle-treated controls”. Moreover, in [5], the “regression (with % Tumor Reduction vs. Vehicle at Day 21)” value is given as −61%.

B2: M863: TEM8 monoclonal antibody (hIgG1); VH SEQ ID NO:7, VL SEQ ID NO:8 (antibody, V domains shown)
VH: EVQLVETGAEVKKPGASVKVSCKASGYTFTGYYMHWVRQAPGQGLEWMGWINPTSGSTNYAQKFQGRVTMTRDTSISTAYMELSGLRSDDTAVYYCVRDPGSPKWLAFDPWGQGTLVTVSS
VL: B1 VL with M4L, A22T, Q27R, T28A
modifications: TEM863 mAb VH; TEM863 mAb VL
As to B2, the AUCI is 1425.735 µg·h/mL in data set [3] (5 mg/kg), 7272.672 µg·h/mL in [3] (15 mg/kg) and 1330.847 µg·h/mL in [4] (5 mg/kg). For the same molecule, the AUCT in data set [3] (5 mg/kg) stood at 1425.565 µg·h/mL; in data set [3] (15 mg/kg), 7271.7 µg·h/mL; in data set [4] (5 mg/kg), 1330.742 µg·h/mL; in data set [4] (15 mg/kg) it was 10721.535 µg·h/mL.

B3: M830 Fc S239D:I332E double mutant: M830 with Fc substitutions S239D and I332E made to increase ADCC (antibody)
heavy: B1 VH
VL: B1 VL
modifications: left off: a dimerising Fc or GST
notes: M830 with Fc substitutions S239D and I332E made to increase ADCC
Consider B3, for which the “binding to FcγRIIIa (CD16a)” value with FcγRIIIa (CD16a) is given as “significantly enhanced binding”.
